Test [1] addresses T1, purified wild type CEACAM5 (human, UniProt P06731-1 35-685).
T1 sequence (looked up): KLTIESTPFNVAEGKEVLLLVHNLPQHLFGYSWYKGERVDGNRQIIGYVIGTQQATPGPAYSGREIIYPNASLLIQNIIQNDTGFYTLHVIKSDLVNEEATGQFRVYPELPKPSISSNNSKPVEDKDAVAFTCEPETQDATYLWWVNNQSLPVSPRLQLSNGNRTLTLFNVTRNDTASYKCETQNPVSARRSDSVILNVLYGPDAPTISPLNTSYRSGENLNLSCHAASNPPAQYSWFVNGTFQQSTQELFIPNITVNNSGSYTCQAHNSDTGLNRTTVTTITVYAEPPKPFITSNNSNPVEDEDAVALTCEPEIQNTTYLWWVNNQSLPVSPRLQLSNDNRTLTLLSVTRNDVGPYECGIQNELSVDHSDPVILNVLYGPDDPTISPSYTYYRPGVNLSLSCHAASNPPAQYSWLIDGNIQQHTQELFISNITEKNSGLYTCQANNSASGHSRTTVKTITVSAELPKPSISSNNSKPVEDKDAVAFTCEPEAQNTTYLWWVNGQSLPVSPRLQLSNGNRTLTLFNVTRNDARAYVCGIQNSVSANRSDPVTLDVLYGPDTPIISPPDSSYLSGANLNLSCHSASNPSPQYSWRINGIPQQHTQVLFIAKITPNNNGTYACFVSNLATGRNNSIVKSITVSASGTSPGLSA
The test can be described thus: SPR.

The target of test [2] is T2, purified CEACAM5 mutant N70,81A (human, UniProt P06731-1 35-685, N70,81A | N70,81A).
T2 sequence (looked up): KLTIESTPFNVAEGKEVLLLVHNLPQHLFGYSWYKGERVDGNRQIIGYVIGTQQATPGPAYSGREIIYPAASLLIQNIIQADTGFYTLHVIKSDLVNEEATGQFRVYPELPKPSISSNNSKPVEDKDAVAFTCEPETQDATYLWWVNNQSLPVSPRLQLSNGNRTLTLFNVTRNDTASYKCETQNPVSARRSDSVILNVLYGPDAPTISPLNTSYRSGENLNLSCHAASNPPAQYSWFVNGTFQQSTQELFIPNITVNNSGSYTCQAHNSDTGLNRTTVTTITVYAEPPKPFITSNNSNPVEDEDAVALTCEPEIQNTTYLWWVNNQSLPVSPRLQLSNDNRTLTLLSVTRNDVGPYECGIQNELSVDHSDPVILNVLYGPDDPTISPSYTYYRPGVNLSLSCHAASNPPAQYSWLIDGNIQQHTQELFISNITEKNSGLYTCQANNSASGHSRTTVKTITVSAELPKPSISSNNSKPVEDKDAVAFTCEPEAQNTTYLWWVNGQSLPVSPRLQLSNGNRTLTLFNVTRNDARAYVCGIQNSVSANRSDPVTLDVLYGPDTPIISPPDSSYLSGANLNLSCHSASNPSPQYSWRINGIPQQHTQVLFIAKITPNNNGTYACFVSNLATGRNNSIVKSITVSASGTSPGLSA
The test can be described thus: SPR.

The results in this text go back to article PMC3981948 (Mucosal immunology, 2013).

B1: purified extracellular domain of CD8α (domain or fragment)
chain: not shown
In test [1], B1 registered a Kd of 0.022 µM, a koff of 0.00056 s⁻¹ and a kon of 26000 M⁻¹ s⁻¹. In test [2], binding was put at a Kd of 16 µM, the koff is 0.0047 s⁻¹ and the kon came out at 290 M⁻¹ s⁻¹.
